Experimental data taken from patent US20030216297A1, “Pharmaceutical composition” (SANKYO COMPANY, LIMITED, priority 2002, published 2003).

Tested on: not listed separately
Test: Measurement of isoelectric point by isoelectric electrophoresis gel
Assay type: physicochemical
Details: IEF PAGE mini gel, pH range 3 to 10, compared with pI markers
Source text: The isoelectric point can be measured using any conventional isoelectric electrophoresis technique well-known to the skilled person in the art. OCIF is a basic protein and the isoelectric point thereof is about pI 9. […] Therefore, it is possible to readily distinguish complexed and uncomplexed OCIF using this technique.
The purified recombinant dimeric human OCIF, prepared as described in Preparation Example 1(a) above and the complex of OCIF and dextran sulfate prepared in Preparation Example 1(b) above which is designated Preparation Number 22 in Table 1 were applied separately to an isoelectric electrophoresis gel IEF PAGE mini (pH range of 3 to 10, manufactured by Iwaki Glass), using an IEF pH 3-7 buffer kit (Technical Frontier Co.) and a voltage was applied to the gel according to the following regime: 100 V for 1 hour, followed by 200 V for 1 hour and finally 500 V for 30 minutes. After completion of the electrophoresis, the resultant gel obtained in each case was stained with Coomassie Blue.
From the electrophoresis gels obtained above, it was determined that the isoelectric point of the dimeric human OCIF was about pI 9, and the isoelectric point of the complex of OCIF and dextran sulfate designated Preparation Number 22 was about pI 6.5 by comparing the band position of OCIF and that of the OCIF complex with pI markers.

| Compound | isoelectric point (pI) |
| --- | --- |
| OCIF: recombinant dimeric human osteoclastogenesis inhibitory factor, molecular weight about 120000, non-complexed | ~9 |
| Prep. 22: OCIF/DS5 complex: DS5 150 mg/ml, OCIF 5 mg/ml, 7 °C, pH 10.5, 168 h | ~6.5 |

Tested on: not listed separately
Test: Degree of adsorption to a heparin cross-linked column
Assay type: physicochemical
Details: applied and washed with 0.7 M NaCl, eluted with 2 M NaCl in 10 mM sodium phosphate buffer; OCIF by ELISA
Source text: A preferred feature of the complexes used in the present invention that can be used to characterise them is their affinity to heparin. Heparin is a polysaccharide comprising D-glucosamine, D-glucuronic acid and D-iduronic acid which is partially or fully derivatised with sulfate and acetyl groups. A preferred feature of the complexes employed in the present invention is that the strength of adsorption of said complex of OCIF or an anlogue or variant thereof to heparin is lower than the strength of adsorption of the free, non-complexed OCIF or analogue or variant thereof. The degree of adsorption can be determined using a column packed with highly cross-linked. linked agarose beads on which has been immobilized heparin (e.g. heparin obtained from bovine intestinal mucosa). Suitable columns of this type include HiTrap heparin HP column, HiPrep 16/10 Heparin and Heparin Sepharose (all obtainable from Amersham Pharmacia). The strength of adsorption (the affinity) of the complex can be determined according to any suitable method that is well known to the person skilled in the art for determining the affinity of proteins to polysaccharides. […] Thus, typically the degree of adsorption of the complex to heparin can be determined as follows:
(a) A column packed with a support such as cross-linked agarose beads on which has been immobilized heparin is equilibrated with a buffer having a relatively low ionic strength (e.g. sodium phosphate buffer containing 0.1-0.8 M sodium chloride).
(b) The complex of the present invention that is being tested is dissolved in the same low ionic strength buffer as used in (a) and applied to the column and a first eluate is then collected (fraction A).
(c) The column is then washed further with the same low ionic strength buffer as used in step (a) and a second eluate is collected (fraction B).
(d) The column is then washed with a buffer having a relatively high ionic strength (e.g. sodium phosphate buffer containing 1.0-2.0 M sodium chloride) and a third eluate is then collected (fraction C).
(e) The amount of the complex present in each of fractions A, B and C [designated (α), (β) and (γ) respectively] is then determined (e.g. by an immunoassay).
(f) The degree of adsorption of the complex to heparin is then determined according to the following formula: [formula]
The degree of adsorption of the complexes of the present invention as measured by the above formula will vary to some extent depending upon the type of heparin column and the conditions under which the determination is carried out.
A heparin cross-linked column (HiTrap Heparin HP column, Lot. 289212, Amersham Bioscience) was pre-equilibrated with 5 ml of 10 mM sodium phosphate buffer containing 0.7 M sodium chloride. A preparation from Table 1 of Preparation Example 1 was taken and diluted to a final protein concentration of 0.1 mg/ml with 10 mM sodium phosphate buffer containing 0.7 M sodium chloride. 1 ml of the diluted solution thus obtained was applied to said column and 1 ml of a first eluate was collected (fraction A). Next, 5 ml of 10 mM sodium phosphate buffer containing 0.7 M sodium chloride were applied to said column and 5 ml of a second eluate were collected (fraction B). Finally, 4 ml of 10 mM sodium phosphate buffer containing 2M sodium chloride were applied to said column and 4 ml of an eluate were collected (fraction C).
100 μL of 0.1 M sodium hydrogen carbonate (pH 9.6), in which was dissolved an anti-human OCIF monoclonal antibody OI-19 (FERM BP-6420) at a concentration of 10 μg per ml, were transferred to each well of a 96-well microtitre plate (Maxisorp: NUNC Co Ltd.). The plate was sealed and then incubated at 4° C. overnight. At the end of this incubation time, the solution in each well was removed by decantation, 300 μL of 50% Block Ace (purchased from Dainippon Pharmaceutical Co., Ltd.) were added to each well, and then the plate was incubated at room temperature for 2 hours. […]

| Compound | The degree of adsorption of the OCIF/DS complex to a heparin cross-linked column |
| --- | --- |
| Prep. 6: OCIF/DS5 complex: DS5 130 mg/ml, OCIF 6.5 mg/ml, 4 °C, pH 10.5, 48 h | 0.451 |
| Prep. 7: OCIF/DS5 complex: DS5 130 mg/ml, OCIF 6.5 mg/ml, 4 °C, pH 10.5, 144 h | 0.183 |
| Prep. 8: OCIF/DS5 complex: DS5 130 mg/ml, OCIF 6.5 mg/ml, 4 °C, pH 10.5, 288 h | 0.153 |
| Prep. 22: OCIF/DS5 complex: DS5 150 mg/ml, OCIF 5 mg/ml, 7 °C, pH 10.5, 168 h | 0.264 |
| Prep. 24: OCIF/DS5 complex: DS5 150 mg/ml, OCIF 5 mg/ml, 25 °C, pH 10, 24 h | 0.072 |
| Prep. 25: OCIF/DS5 complex: DS5 130 mg/ml, OCIF 6.5 mg/ml, 4 °C, pH 10.5, 24 h | 0.611 |
| Prep. 27: OCIF/DS5 complex: DS5 150 mg/ml, OCIF 5 mg/ml, 4 °C, pH 10.5, 144 h | 0.141 |

Tested on: adjuvant-arthritis Lewis rat
Test: Adjuvant arthritis in Lewis rats, femur bone mineral density: OCIF complex with loxoprofen sodium
Assay type: in vivo
Details: distal ends of femurs, day 21 after adjuvant; loxoprofen sodium 5 mg/kg p.o. and/or Preparation 11 0.1 mg/kg i.p. daily, days 14 to 20
Protocol: This example was carried out according to the method described in C. V. Winder, et al. Arthritis Rheum 12 472 (1957). Heat-killed cells of Mycobacterium butyricum were pulverized in an agate mortar and then suspended in liquid paraffin sterilized with hot air to give a suspension having a cellular concentration of 2 mg/ml. This suspension was then subjected to ultrasonication so as to produce an adjuvant. 50 μl of the obtained adjuvant were injected intradermally at each of two sites in the base of the tail of a Lewis rat (eight-weeks old, female) (200 μg in total per rat), to induce arthritis in said rat. […] As a control, instead of the loxoprofen sodium, OCIF complex Preparation 11 or a combination thereof, only the solvents used for dissolving them were administered to the rat. […] The bone mineral densities of the distal ends of the right-and-left femurs were measured using an X-ray measurement apparatus (Dual energy X-ray absorptiometry DCS-600R, manufactured by Aroka Co., Ltd.), and the average of each of the measured values was calculated, and was defined as the bone mineral density of the individual. In order to evaluate the differences between the averages of the bone mineral densities of each group, significant difference was tested by Student's t-test, and the P value was calculated.

| Compound | Bone mineral density (average ± standard error) |
| --- | --- |
| CC(C(=O)O)c1ccc(CC2CCCC2=O)cc1 (stereo not shown) [Loxoprofen sodium, loxoprofen sodium, reference compound] | 106.5 ± 0.8 mg/cm^2 |
| Prep. 11: OCIF/DS5 complex: DS5 100 mg/ml, OCIF 5 mg/ml, 4 °C, pH 10.5, 18 h | 109.6 ± 2.1 mg/cm^2 |

Tested on: adjuvant-arthritis Lewis rat
Test: Adjuvant arthritis in Lewis rats, femur bone mineral density: OCIF complex with celecoxib
Assay type: in vivo
Details: distal ends of femurs, day 21 after adjuvant; celecoxib 1 mg/kg p.o. and/or Preparation 22 3.5 mg/kg i.p. daily, days 14 to 20
Protocol: Arthritis was induced in test groups of Lewis rats (eight-weeks old, female) according to the same procedure described in Example 2 above.
From the 14th to 20th days after injection of the adjuvant, celecoxib [Thomas D, P., et al., J. Med. Chem., 40, 1347-1365 (1997); WO-A-95/15316] suspended in a 0.5% tragacanth aqueous solution (manufactured by Nihon Funmatsu Yakuhin Co., Ltd.) at a concentration of 0.2 mg/ml was orally administered to each rat of one test group at a rate of 5 ml/kg each day so that the dose of […] administered was 1 mg/kg body weight. […]
Each rat was dissected on the 21 st day after injection of the adjuvant, and the right-and-left femurs were extracted. The bone mineral densities of the distal ends of the right-and-left femurs were measured using an X-ray measurement apparatus (Dual energy X-ray absorptiometry DCS-600R, manufactured by Aroka Co., Ltd.), and the average of each of the measured values was calculated, and was defined as the bone mineral density of the individual.
In order to evaluate the differences between the averages of the bone mineral densities of each group, significant difference was tested by Student's t-test, and the P value was calculated.

| Compound | Bone mineral density (average ± standard error) |
| --- | --- |
| Cc1ccc(-c2cc(C(F)(F)F)nn2-c2ccc(S(N)(=O)=O)cc2)cc1 [Celecoxib, celecoxib, reference compound] | 103.0 ± 1.8 mg/cm^2 |
| Prep. 22: OCIF/DS5 complex: DS5 150 mg/ml, OCIF 5 mg/ml, 7 °C, pH 10.5, 168 h | 104.2 ± 2.1 mg/cm^2 |
